According to patent publication US20150191541A1 (NEOTOPE BIOSCIENCES, published 2015):
Positions count from the first letter of the chain named. Blank lines part the entries; values can stand above or below the binder they belong to. Positions of bridges follow the written chain, without caps; N, C: chain ends. No end group written: not given here.

Columns and labels:
[1] = molecular target: T1, peptide of amino acid residues 1-10 of IAPP (human, disulfide 2-7); experiment: epitope mapping
T1 construct: also called IAPP 1-10
T1 peptide: KCNTATCATQ

[2] = molecular target: T2, human islet-amyloid polypeptide (IAPP) (human); experiment: ELISA screen of hybridomas on IAPP
T2 construct: also called hIAPP; amylin
T2 peptide: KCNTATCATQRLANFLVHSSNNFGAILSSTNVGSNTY

rat IAPP = molecular target: T3, rat IAPP (rat, UniProt P12969 38-74); experiment: Biacore SPR, antibody captured on anti-human CM5 chip, rat IAPP as analyte
T3 construct: also called rat islet-amyloid polypeptide
T3 peptide (looked up): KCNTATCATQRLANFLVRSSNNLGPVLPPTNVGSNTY
Description: The affinity of various combinations of 8A9 humanized heavy chains and humanized light chain proteins for hIAPP was analyzed on a Biacore instrument. Biacore analysis was performed by preparing an anti-human CM5 chip following the protocol provided in the kit. The 8A9 antibody was captured such that the maximum binding of rat IAPP would not exceed 20-30 RU. […] Data was blank subtracted to both an irrelevant sensor not containing 8A9 and 0 IAPP concentration to account for the dissociation of 8A9 from the anti-human capture. Data was then analyzed using a global 1:1 fit.

binding result [1]: binds
binding result [2]: binds
B1: murine 8A9 antibody (antibody, V domains shown)
VH: QVQLKESGPGLVAPSQSLSITCTVSGFSLTNYAVHWVRQPPGKGLEWLGVIWSGGNTNYNSALMSRLRISKDNSQSQVFLKMNSLQTDDTGMYYCARDRGYYGGIYGFANWGQGTLVTVSS
VL: DIQMTQSPSSLSASLGKRVSLTCRASQEISGYLSWLQQKPDGTIKRLIYAASTSDSGVPKRFSGSRSGSDYSLTISSVESEDFADYYCLQYADYPYTFGGGTKLEIK
notes: Mouse hybridoma antibody; also called m8A9; mouse 8A9 antibody

fold difference of affinity against murine 8A9 (rat IAPP): < 2 fold
B2: humanized 8A9 antibody version H7L3 (antibody, V domains shown)
VH: B1 VH with K5Q, E6Q, A13K, I20L, R68T, S76N, M82L, Q86T, D88A, M92V
VL: DIQMTQSPSSLSASVGDRVTITCRASQEISGYLSWLQQKPGKAIKRLIYAASTSDSGVPSRFSGSRSGSDYTLTISSLQPEDFADYYCLQYADYPYTFGGGTKVEIK
notes: also called H8A9-H7L3
